# Reference: PMC2908316 (Journal of biomolecular screening, 2009)
# Tests used:
# [1] = molecular target: T1, RGS7 RH domain, GST-fusion protein, biotinylated (UniProt P49802 333-448, biotin on amines (Biotin-NHS, 3:1 biotin:RGS)); test: flow cytometry protein interaction assay
# T1 sequence (looked up): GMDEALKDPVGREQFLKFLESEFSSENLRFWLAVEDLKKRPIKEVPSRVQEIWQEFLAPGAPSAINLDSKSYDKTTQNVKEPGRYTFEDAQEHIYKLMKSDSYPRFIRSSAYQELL
# [2] = molecular target: T2, full-length RGS8, GST-fusion protein, biotinylated (UniProt P49804 1-180, biotin on amines (Biotin-NHS, 3:1 biotin:RGS)); test: flow cytometry protein interaction assay
# T2 sequence (looked up): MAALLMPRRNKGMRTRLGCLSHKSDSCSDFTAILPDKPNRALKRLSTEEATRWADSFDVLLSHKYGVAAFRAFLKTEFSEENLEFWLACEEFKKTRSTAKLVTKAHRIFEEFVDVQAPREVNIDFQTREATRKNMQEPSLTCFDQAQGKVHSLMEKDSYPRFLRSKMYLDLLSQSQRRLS
binder,measurement,setting,value
"Rat Gαo, N-terminal 6X-HIS tagged, labeled with AlexaFluor 532 (natural protein, UniProt P59215 1-354, looked up, AlexaFluor 532 carboxylic acid succinimidyl ester label, 3:1 fluorophore:protein ratio) MGCTLSAEERAALERSKAIEKNLKEDGISAAKDVKLLLLGAGESGKSTIVKQMKIIHEDGFSGEDVKQYKPVVYSNTIQSLAAIVRAMDTLGVEYGDKERKADSKMVCDVVSRMEDTEPFSAELLSAMMRLWGDSGIQECFNRSREYQLNDSAKYYLDSLDRIGAADYQPTEQDILRTRVKTTGIVETHFTFKNLHFRLFDVGGQRSERKKWIHCFEDVTAIIFCVALSGYDQVLHEDETTNRMHESLMLFDSICNNKFFIDTSIILFLNKKDLFGEKIKKSPLTICFPEYPGSNTYEDAAAYIQTQFESKNRSPNKEIYCHMTCATDTNNIQVVFDAVTDIIIANNLRGCGLY","bead-associated fluorescence, positive control mean (with AlF4-)",[1],948
same,"bead-associated fluorescence, positive control mean (with AlF4-)",[2],2060
